Reference: patent US20240391954A1, “MC4R AGONIST PEPTIDES” (The Regents of the University of Michigan, priority 2021, published 2024)
Values joined by “and” are separate entries in the source; they are usually repeats but may differ in a detail not shown here. Identical values can stand only once. Positions of bridges follow the written chain, without caps; N, C: chain ends. Non-standard residues stand in square brackets, D forms with d. Residues, ends and D or L forms follow the SMILES beside them. Cit = NC(=O)NCCC[C@H](N)C(=O)O; Nle = CCCC[C@H](N)C(=O)O

Assays:
Mouse plasma stability = format: in vitro ADME; conditions: pooled mouse plasma, 37° C.
Experimental: FIG. 3. Results of plasma stability testing for control peptides. Compounds shown were incubated in mouse plasma at 37° C. at 1 μM concentrations. 40 ul aliquots were removed at the times indicated and the reactions stopped with the addition of 160 μL cold acetonitrile containing 200 ng/ml of peptide internal standard (IS). The incubation solution was centrifuged at 3500 rpm for 10 minutes to precipitate protein. LC/MS/MS analysis was used to determine the % peptide remaining.
Pooled mouse plasma was prepared and stored at −80° C, prior to use, 396 μL mouse plasma was incubated at 37° C. for 5 minutes in 1.5 mL microcentrifuge tubes. 4 μL of 100 μM test or control compound/peptide was added to each tube and incubated for 0.5, 15, 30, 60, 120, or 240 minutes. An aliquot of 40 μL of each reaction was stopped by the addition of 4 volume of cold acetonitrile containing 200 ng/mL of […] solution was centrifuged at 3500 rpm for 10 minutes to precipitate protein. The supernatant was used for LC/MS/MS analysis. The natural log peak area ratio (compound peak area/internal standard peak area) was plotted against time and the gradient of the line determined.

human MC1R = biological target: T1, human MC1R (Homo sapiens, UniProt Q01726); assay: split-luciferase cAMP sensor assay, agonist mode, hMC1R; format: cell-based; conditions: MC4R versus MC1R
T1 construct: expressed in transfected cells; host or cells: HEK-293 cells stably expressing hMC1R and the GScAMP22F cAMP sensor
Method in brief: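 HEK-293 cells stably expressing hMC1R and the GScAMP22F split-luciferase cAMP sensor, preloaded 120 min at 37° C with D-luciferin in serum-free medium. Peptide responses were taken as peak luminescence over 2-13 min minus 2-min baseline, normalized to the α-MSH ECmax. EC50 was obtained from a four-parameter variable-slope fit.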

human MC4R = biological target: T2, human MC4R (Homo sapiens, UniProt P32245); assay: split-luciferase cAMP sensor assay, agonist mode (measurement window 1), hMC4R; format: cell-based; conditions: % maximal activation, agonist mode; read-out: MC4R cAMP % max activation
T2 construct: host or cells: HEK-293 cells stably expressing the GScAMP22F split-luciferase cAMP sensor and hMC4R, G418 selection
Method in brief: (§1)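 Live stable cell lines carrying receptor plus GloSensor cAMP22f split-luciferase, loaded with 4% D-luciferin in serum-free medium (~1% serum estimated during assay). Luminescence recorded during in-line peptide addition; direct agonist effect read in window 1, with 20 μM forskolin as normalization reference. EC50 from four-parameter sigmoid fit.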

[1] = Plasma protein binding (Centrifree ultrafiltration); format: in vitro ADME
Experimental: Solutions of test compound in DMSO were prepared at 1 mM, 100 uM and 10 uM, 5 ul of each solution of test compound was added to 495 uL plasma, and incubated at 25° C. for 5 min. Sample was added to a Centrifree® device, then centrifuged at 2000× g for 20 min to obtain desired filtrate volume. Initial plasma samples and ultrafiltrates were subjected to LC-MS/MS. % Free peptide=(concentration of ultrafiltrates/concentration of plasma)×100%. % Bound=100%−% Free

human MC3R [2] = biological target: T3, human MC3R (Homo sapiens, UniProt P41968); assay: split-luciferase cAMP sensor assay, agonist mode (measurement window 1), hMC3R; format: cell-based
T3 construct: expressed in transfected cells; host or cells: HEK-293 cells stably expressing the GScAMP22F split-luciferase cAMP sensor (parent reporter line from Promega); MC3R clone generated in-house, G418 selection
Method in brief: as §1

[3] = Pharmacokinetics: plasma and brain concentration after IP injection; format: in vivo, mouse; conditions: for Brain concentration, individual mice 1-3 / Plasma concentration, individual mice 1-3: individual animals, listed as setmelanotide
Experimental: FIG. 5. Pharmacokinetic data for an exemplary peptide relative to setmelanotide. Peptides at 1.5 mg/mL in PBS containing 10% DMSO and 10% PEG-400 were given by IP injection (15 mg/kg) to female CD-1 mice (n=15). At the given time points (0.5 h, 2 h, 4 h, 7 h and 24 h), brain samples were taken out and frozen at −80° C. immediately for later preparation and analysis, and blood samples were collected using heparinized calibrated pipettes. Blood samples were centrifuged at 15000 rpm for 10 min. Subsequently, blood plasma was collected from the upper layer. The plasma was frozen at −80° C. for later analysis. Peptide concentrations at times indicated were determined by LC MS/MS, using non-zero standards in blank Plasma and Brain Samples.
The drug at 1.5 mg/mL in PBS containing 10% DMSO and 10% PEG-400 was given by IP injection (15 mg/kg). At the given time points (0.5 h, 2 h, 4 h, 7 h and 24 h), brain samples were taken out and frozen at −80° C. immediately for later preparation and analysis, and blood samples were collected using heparinized calibrated pipettes. Blood samples were centrifuged at 15000 rpm for 10 min. Subsequently, blood plasma was collected from the upper layer. The plasma was frozen at −80° C. for later analysis.
The analytical curves were constructed using non-zero standards in the blank Plasma and Brain Samples. A blank sample (matrix sample processed without internal standard) was used to exclude contamination. The linear regression analysis of CTX1227/setmelanotide were performed by plotting the peak area ratio (y) against the CTX1227/setmelanotide concentration (x) in ng/mL, respectively.

plasma protein [4] = assay: plasma ultrafiltration (Centrifree), LC-MS/MS; peptide 0.1 uM
human MC4R receptor [5] = biological target: T4, human MC4R receptor (human, UniProt P32245 1-332); assay: cell-based or functional assay
human MC3R [6] = biological target: human MC3R (human, UniProt P41968 1-323); assay: cell-based or functional assay
plasma protein [7] = assay: plasma ultrafiltration (Centrifree), LC-MS/MS; peptide 1.0 uM
plasma protein [8] = assay: plasma ultrafiltration (Centrifree), LC-MS/MS; peptide 10.0 uM
human MC4R receptor [9] = biological target: T4, human MC4R receptor; assay: cell-based or functional assay; remark: listed apart in the source

T4 sequence (P32245 whole entry): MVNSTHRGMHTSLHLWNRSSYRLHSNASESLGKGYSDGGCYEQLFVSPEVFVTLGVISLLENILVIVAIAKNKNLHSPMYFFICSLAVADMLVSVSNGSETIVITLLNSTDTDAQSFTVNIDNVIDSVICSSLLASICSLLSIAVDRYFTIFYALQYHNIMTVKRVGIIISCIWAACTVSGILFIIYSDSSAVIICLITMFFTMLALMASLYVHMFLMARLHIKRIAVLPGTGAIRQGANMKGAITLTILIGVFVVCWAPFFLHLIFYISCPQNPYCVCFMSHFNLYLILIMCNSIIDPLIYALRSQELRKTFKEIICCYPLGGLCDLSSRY
Chain of human MC3R (human, UniProt P41968 1-323) (P41968 whole entry): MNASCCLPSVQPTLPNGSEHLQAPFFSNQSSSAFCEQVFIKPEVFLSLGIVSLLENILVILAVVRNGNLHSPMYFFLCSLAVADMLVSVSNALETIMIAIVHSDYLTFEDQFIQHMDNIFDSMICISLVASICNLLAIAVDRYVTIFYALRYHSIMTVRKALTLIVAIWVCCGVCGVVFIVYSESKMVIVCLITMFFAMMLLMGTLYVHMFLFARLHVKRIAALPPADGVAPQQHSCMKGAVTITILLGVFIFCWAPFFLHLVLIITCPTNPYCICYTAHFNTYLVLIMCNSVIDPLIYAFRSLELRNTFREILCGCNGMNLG
T3 sequence (P41968 whole entry): as above
T2 sequence (P32245 whole entry): as the sequence (P32245 whole entry) above
T1 sequence (Q01726 whole entry): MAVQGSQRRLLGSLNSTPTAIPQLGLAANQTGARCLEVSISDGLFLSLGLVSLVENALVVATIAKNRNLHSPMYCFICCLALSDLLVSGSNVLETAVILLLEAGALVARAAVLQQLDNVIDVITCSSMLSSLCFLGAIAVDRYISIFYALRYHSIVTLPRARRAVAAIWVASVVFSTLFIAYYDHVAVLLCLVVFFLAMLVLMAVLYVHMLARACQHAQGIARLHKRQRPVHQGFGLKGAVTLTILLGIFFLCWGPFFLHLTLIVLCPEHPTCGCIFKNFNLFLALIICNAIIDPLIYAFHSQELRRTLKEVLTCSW

CC(=O)N[C@@H](CCCNC(=N)N)C(=O)N[C@H]1CSSC[C@@H](C(N)=O)NC(=O)[C@H](Cc2c[nH]c3ccccc23)NC(=O)[C@H](CCCNC(=N)N)NC(=O)[C@@H](Cc2ccccc2)NC(=O)[C@H](CCCNC(=N)N)NC(=O)[C@@H](C)NC1=O [CTX-1211, Arg-cyclo(Cys-D-Ala-Arg-D-Phe-Arg-Trp-Cys)] (Ac-RC[dA]R[dF]RWC-NH2; disulfide 2-8 (inferred))
half-life at 1 µM (Mouse plasma stability): > 3 h
MC4R selectivity vs MC1R (human MC1R): 3.12
Emax (human MC4R): 96%
fraction unbound at 5 min, 0.1 µM [1]: 0.49
fraction unbound at 5 min, 1 µM [1]: 0.37
fraction unbound at 5 min, 10 µM [1]: 0.39
Emax (human MC3R [2]; % maximal activation, agonist mode, read-out: MC3R cAMP % max activation): 91%
MC4R selectivity vs MC3R (human MC3R [2]; MC4R versus MC3R): 5.49

CC(=O)N[C@@H](CCCN=C(N)N)C(=O)N[C@H]1CSSC[C@H](C(N)=O)NC(=O)[C@H](Cc2c[nH]c3ccccc23)NC(=O)C(CCCN=C(N)N)NC(=O)[C@@H](Cc2ccccc2)NC(=O)[C@H](Cc2cnc[nH]2)NC(=O)[C@@H](C)NC1=O (stereo partly drawn) [CTX-1200, Arg-cyclo(Cys-D-Ala-His-D-Phe-Arg-Trp-Cys), reference compound]
half-life at 1 µM (Mouse plasma stability): > 3 h
fraction unbound at 5 min, 0.1 µM [1]: 0.57
fraction unbound at 5 min, 1 µM [1]: 0.43
fraction unbound at 5 min, 10 µM [1]: 0.39
Brain concentration, individual mice 1-3 ([3]; IP 15 mg/kg, 0.5 h, brain, 15 mg/kg): 306.5 ng/g and 231.5 ng/g and 247.5 ng/g
Plasma concentration, individual mice 1-3 ([3]; IP 15 mg/kg, 0.5 h, plasma, 15 mg/kg): 67000 ng/mL and 37200 ng/mL and 25800 ng/mL
Brain concentration, individual mice 1-3 ([3]; IP 15 mg/kg, 2 h, brain, 15 mg/kg): 207.5 ng/g and 121.5 ng/g and 220.5 ng/g
Plasma concentration, individual mice 1-3 ([3]; IP 15 mg/kg, 2 h, plasma, 15 mg/kg): 7190 ng/mL and 11000 ng/mL and 4580 ng/mL
Brain concentration, individual mice 1-3 ([3]; IP 15 mg/kg, 4 h, brain, 15 mg/kg): BLQ
Plasma concentration, individual mice 1-3 ([3]; IP 15 mg/kg, 4 h, plasma, 15 mg/kg): 455 ng/mL and 9590 ng/mL and 17.8 ng/mL
Brain concentration, individual mice 1-3 ([3]; IP 15 mg/kg, 7 h, brain, 15 mg/kg): BlQ and BLQ (2×)
Plasma concentration, individual mice 1-3 ([3]; IP 15 mg/kg, 7 h, plasma, 15 mg/kg): 64.2 ng/mL and 69.3 ng/mL and 55.3 ng/mL
Brain concentration, individual mice 1-3 ([3]; IP 15 mg/kg, 24 h, brain, 15 mg/kg): BlQ and BLQ (2×)
Plasma concentration, individual mice 1-3 ([3]; IP 15 mg/kg, 24 h, plasma, 15 mg/kg): 8.04 ng/mL and 7.37 ng/mL and 8.81 ng/mL
tissue level at time at 0.5 h ([3]; female, CD-1, mouse, brain, ip, 15 mg/kg, mice, 0.5 h, mean of 3): 262 ng/g
tissue level at time at 2 h ([3]; female, CD-1, mouse, brain, ip, 15 mg/kg, mice, 2 h, mean of 3): 183 ng/g
level at 0.5 h ([3]; female, CD-1, mouse, mice, IP 15 mg/kg, 0.5 h, plasma, mean of 3): 43300 ng/mL
level at 2 h ([3]; female, CD-1, mouse, mice, IP 15 mg/kg, 2 h, plasma, mean of 3): 7590 ng/mL
level at 4 h ([3]; female, CD-1, mouse, mice, IP 15 mg/kg, 4 h, plasma, mean of 3): 3350 ng/mL
level at 7 h ([3]; female, CD-1, mouse, mice, IP 15 mg/kg, 7 h, plasma, mean of 3): 62.9 ng/mL
level at 24 h ([3]; female, CD-1, mouse, mice, IP 15 mg/kg, 24 h, plasma, mean of 3, read-out: Plasma concentration, Mean): 8.07 ng/mL

B1: CTX-1228 (peptide)
peptide: Ac-R[Nle]CR[dF]RWC-NH2
modifications: disulfide 3-8
SMILES: CCCC[C@H](NC(=O)[C@H](CCCNC(=N)N)NC(C)=O)C(=O)N[C@H]1CSSC[C@@H](C(N)=O)NC(=O)[C@H](Cc2c[nH]c3ccccc23)NC(=O)[C@H](CCCNC(=N)N)NC(=O)[C@@H](Cc2ccccc2)NC(=O)[C@H](CCCNC(=N)N)NC1=O
Protein Binding (%) (plasma protein [4]): 37%
% max activation (human MC4R receptor [5]): 102%
cAMP EC50 (human MC4R receptor [5]): 0.2 nM
% max activation (human MC3R [6]): 93%
cAMP EC50 (human MC3R [6]): 1.6 nM
Protein Binding (%) (plasma protein [7]): 39%
Protein Binding (%) (plasma protein [8]): 39%
MC4R selectivity vs MC1R (human MC4R receptor [9]): 3.16
MC4R selectivity vs MC3R (human MC4R receptor [9]): 8.38

Ac-RCAR[dF]R[dW]C-NH2 (disulfide 2-8) [CTX-1268]
Protein Binding (%) (plasma protein [4]): 52%
% max activation (human MC4R receptor [5]): 96%
cAMP EC50 (human MC4R receptor [5]): 7 nM
% max activation (human MC3R [6]): 44%
cAMP EC50 (human MC3R [6]): 211 nM
Protein Binding (%) (plasma protein [7]): 58%
Protein Binding (%) (plasma protein [8]): 62%
MC4R selectivity vs MC1R (human MC4R receptor [9]): 6.59
MC4R selectivity vs MC3R (human MC4R receptor [9]): 30

Ac-RC[dA][Cit][dF]RWC-NH2 (disulfide 2-8) [CTX-1285]
Protein Binding (%) (plasma protein [4]): 45%
% max activation (human MC4R receptor [5]): 94%
cAMP EC50 (human MC4R receptor [5]): 1.7 nM
% max activation (human MC3R [6]): 28%
cAMP EC50 (human MC3R [6]): 4.9 nM
Protein Binding (%) (plasma protein [7]): 39%
Protein Binding (%) (plasma protein [8]): 41%
MC4R selectivity vs MC1R (human MC4R receptor [9]): 134
MC4R selectivity vs MC3R (human MC4R receptor [9]): 2.9

B2: CTX-1211 (peptide)
peptide: Ac-RC[dA]R[dF]RWC-NH2
modifications: disulfide 2-8
SMILES: CC(=O)N[C@@H](CCCNC(=N)N)C(=O)N[C@H]1CSSC[C@@H](C(N)=O)NC(=O)[C@H](Cc2c[nH]c3ccccc23)NC(=O)[C@H](CCCNC(=N)N)NC(=O)[C@@H](Cc2ccccc2)NC(=O)[C@H](CCCNC(=N)N)NC(=O)[C@@H](C)NC1=O
Protein Binding (%) (plasma protein [4]): 51%
% max activation (human MC4R receptor [5]): 96%
cAMP EC50 (human MC4R receptor [5]): 0.38 nM
% max activation (human MC3R [6]): 91%
cAMP EC50 (human MC3R [6]): 2.1 nM
Protein Binding (%) (plasma protein [7]): 63%
Protein Binding (%) (plasma protein [8]): 61%
MC4R selectivity vs MC1R (human MC4R receptor [9]): 3.12
MC4R selectivity vs MC3R (human MC4R receptor [9]): 5.49

B3: CTX-1227 (peptide)
peptide: Ac-R[Nle]CH[dF]RWC-NH2
modifications: disulfide 3-8
SMILES: CCCC[C@H](NC(=O)[C@H](CCCNC(=N)N)NC(C)=O)C(=O)N[C@H]1CSSC[C@@H](C(N)=O)NC(=O)[C@H](Cc2c[nH]c3ccccc23)NC(=O)[C@H](CCCNC(=N)N)NC(=O)[C@@H](Cc2ccccc2)NC(=O)[C@H](Cc2c[nH]cn2)NC1=O
Protein Binding (%) (plasma protein [4]): 50%
% max activation (human MC4R receptor [5]): 103%
cAMP EC50 (human MC4R receptor [5]): 0.3 nM
% max activation (human MC3R [6]): 96%
cAMP EC50 (human MC3R [6]): 2.8 nM
Protein Binding (%) (plasma protein [7]): 47%
Protein Binding (%) (plasma protein [8]): 54%
MC4R selectivity vs MC1R (human MC4R receptor [9]): 0.92
MC4R selectivity vs MC3R (human MC4R receptor [9]): 11
